Article PMC12474881
Blank lines part the entries; values can stand above or below the substance they belong to.

Assays:
CaMKIIδ-0 F368A (human) = test: mass photometry
[1] = target: CaMKIIδ-0 F368A/L405M (human); test: mass photometry
[2] = target: CaMKIIδ-0 F368A/Q407A (human); test: mass photometry
[3] = target: CaMKIIα with exon 14 only as the variable linker (human)
[4] = target: CaMKIIδ with exon 14 only as the variable linker (human)
[5] = target: CaMKIIβ with exon 14 only as the variable linker (human)
[6] = target: CaMKIIα with exon 18 only as the variable linker (human)
[7] = target: CaMKIIα exon 18 with all Ser and Thr residues in exon 18 mutated to Ala (human)
[8] = target: CaMKIIα with the sequence of exon 18 reversed (human)
[9] = target: CaMKIIα with basified exon 18 (human)
[10] = target: CaMKIIα with acidic exon 14 (all basic residues of exon 14 mutated to acidic residues) (human)
[11] = target: CaMKIIα mutants with acidic exon 18 positioned proximal to the regulatory segment

- percent of the total population as dimers at 25 nM (CaMKIIδ-0 F368A (human)): 20%
- percent of the total population as dimers at 100 nM (CaMKIIδ-0 F368A (human)): 10%
- percent of the total population as tetramers at 100 nM (CaMKIIδ-0 F368A (human)): 5%
- stoichiometry N (CaMKIIδ-0 F368A (human)): 14
Substance: CaMKIIδ-0 F368A (enzyme)

- percent of the population as tetradecameric holoenzyme at 100 nM [1]: 5%
- stoichiometry N [1]: 2
Substance: CaMKIIδ-0 F368A/L405M (enzyme)

- percent of the population as tetradecameric holoenzyme at 100 nM [2]: 5%
- stoichiometry N [2]: 2
Substance: CaMKIIδ-0 F368A/Q407A (enzyme)

- EC50 of Ca2+/CaM for kinase activity against syntide-2 (coupled kinase assay) [3]: 17 nM
- EC50 of Ca2+/CaM for kinase activity against syntide-2 (coupled kinase assay) [4]: 20 nM
- EC50 of Ca2+/CaM for kinase activity against syntide-2 (coupled kinase assay) [5]: 20 nM
- EC50 of Ca2+/CaM for kinase activity against syntide-2 (coupled kinase assay) [6]: 193 nM
- EC50 of Ca2+/CaM for kinase activity (coupled kinase assay) [7]: 350 nM
- EC50 of Ca2+/CaM for kinase activity against syntide-2 (coupled kinase assay) [8]: 41 nM
- EC50 of Ca2+/CaM for kinase activity against syntide-2 (coupled kinase assay) [9]: 34 nM
- EC50 of Ca2+/CaM for kinase activity against syntide-2 (coupled kinase assay) [10]: 102 nM
- EC50 of Ca2+/CaM for kinase activity (coupled kinase assay) [11]: 70 nM
Substance: Calmodulin (Gallus gallus) (from UniProt P62149 1-149) (natural protein)
